Test results from patent publication US20220112288A1 (published 2022).
Where a chain is given by its changes, count along the chain named.

B1: 75110_08F20A (antibody, V domains shown)
VH: QVQLQESGPGLVKPSETLSLTCSVSGGSISTYYWSWIRQPAGKGLEWIGRICTTENTNYNPSLKSRVTMSIDSSKNQFSLKLSSVTAADTAVYYCARDLERLNYYGMDVWGQGATVTVSS
VL: DIQMTQSPSSLSASVGDRVTITCQASQDISKYLNWYQQKPGIAPKLLIYDASNLETGVPSRFSGSGSGTDFTFTISSLQPEDFATYYCQQYDSLPITFGQGTRLEIK
notes: Tested as non-clonal AlivaMab Mouse Kappa hybridoma supernatant (detected with anti-mouse Fc gamma and anti-human kappa)
B2: 75110_14N19A (antibody, V domains shown)
VH: B1 VH with S23T, T31R, T54S, T57P, S62A, I71V, S73T, D98E, A114T
VL: B1 VL with S7F, K31N, I42K, T56S, S65R, Y86F, S93T
notes: as for B1
B3: 75110_08G08A (antibody, V domains shown)
VH: B1 VH
VL: B1 VL with K31N, F83I
notes: as for B1
B4: 75110_02N15A (antibody, V domains shown)
VH: EVQLVESGGGLVQPGGSLRLSCAASGFTFSSYWMSWVRQAPGKGLEWVANINEDGNEKYYVDSVKGRFTISRDNAKNSLFLQMNSLRAEDTAVYFCAREGGQWLALDHWGQGALVTVSS
VL: DIQMTQSPSSVSASVGDRVTITCRASQGISSWLAWYQQKPGKAPKFLISGASSLQSGVPSRFSGSGSGTDFTLTISSLQPEDFATYYCQQANSFPWTFGQGTKVEFK
notes: as for B1
B5: 75110_14P08A (antibody, V domains shown)
VH: QVQLQESGPGLVKSSETLSLTCTDSGDSIRSYYWNWIRQPAGKGLEWIGRIYASGSTNYNPSLKSRVIMSADTSKNRFSLKLSSVTAADTAVYYCARDGGVGDSLDYWGQGTLVTVSS
VL: DIVMTQTPLSLPVTPGEPASISCRSSQSLLDSDDGNTYLDWYLQKPGQSPQLLIYTLSYRASGVPDRFSGSGSGTDFTLKISRVEAEDVGVYYCMQRIEFPFTFGPGTKVDIK
notes: as for B1
B6: 75110_14G10A (antibody, V domains shown)
VH: EVQLVESGGGLVKPGGSLRLSCAASGFTFSSYSMNWVRQAPGKGLEWVSFISSSSSYIYYADSVKGRFTISRDNAKNSLYLQMNSLRAEDTAVYYCARERGDDYGDYEGAFDIWGQGTMVTVSS
VL: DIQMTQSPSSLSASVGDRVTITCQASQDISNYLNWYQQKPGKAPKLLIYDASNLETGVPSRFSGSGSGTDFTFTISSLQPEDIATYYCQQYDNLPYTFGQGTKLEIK
notes: as for B1
B7: 75110_07N04A (antibody, V domains shown)
VH: QVQLQESGPGLVKPSETLSLTCSVSGVSSTSFYWSWIRQPAGKGLDWIGRIYTSGSTNYNPSLKSRVTMSVDTSKNQFSLKLSSVTAADTAVYYCARDPGYSDAFAIWGQGTMVTVSS
VL: not shown
notes: as for B1
B8: 75110_10O16A (antibody, V domains shown)
VH: EVQLVESGGGLVQPGGSLRLSCAASGFTFSNSDMHWVRQATGKGLEWVSTIGTAGDTYYPGSVKGRFTISRENAKNSLYLQMNSLRAGDTAVYYCARGGLYYYGMDVWGQGTTVTVSS
VL: ENVLTQSPGTLSLSPGERATLSCRASQSVSSSYLAWYQQKPGQAPRLLIYGASSRATGIPDRFSGSGSGTDFTLTISRLEPEDFAVYYCHQFGSSPFTFGPGTKVDIK
notes: Tested as non-clonal AlivaMab Mouse Kappa hybridoma supernatant (detected with anti-mouse Fc gamma and anti-human kappa); also called 75110_10016A
B9: 75110_08K12A (antibody, V domains shown)
VH: B8 VH with N31S, S32Y, K75E, V92L, G99D, L100Y
VL: B8 VL with N2I, S32T, S54N, H90Q, S94T
notes: as for B1
B10: 75110_01E08A (antibody, V domains shown)
VH: B8 VH with S30N, S32Y, G61A, S70Y, L100D
VL: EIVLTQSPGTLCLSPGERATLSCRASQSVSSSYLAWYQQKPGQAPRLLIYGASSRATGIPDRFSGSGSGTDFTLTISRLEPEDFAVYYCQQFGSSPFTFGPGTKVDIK
notes: as for B1

Target: T1, human CD4 on cells (SKW3 cells; human PBMCs) (human, UniProt P01730 26-458)
T1 construct: whole, on cells; SKW3 CD4 knockout cells served as the negative cell line in the primary screen; also called hCD4; huCD4
Experiment: FACS confirmation, supernatant on human PBMCs;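 also: flow cytometry with hybridoma supernatants incubated on human PBMCs for 30 min at 4 °C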

PBMCs CD4+ gate RL1 binding, anti-mFc 647 | Binder | PBMCs CD4+ percent bound of viable [%]
253000 | B1 | 32
277000 | B2 | 29
314000 | B3 | 30
250000 | B4 | 27
292000 | B5 | 30
142000 | B6 | 32
344000 | B7 | 30
72100 | B8 | 23
276000 | B9 | 29
302000 | B10 | 29

Target: T1, human CD4 on cells (SKW3 cells; human …)
Experiment: FACS confirmation, supernatant on SKW3 cells; background gMFI 2500

gMFI on SKW3 WT, anti-hu Kappa FITC [gMFI] | Binder
6170 | B1
7640 | B2
5840 | B3
5000 | B4
5580 | B5
3410 | B6
6230 | B7
3160 | B8
5300 | B9
6340 | B10

Target: T1, human CD4 on cells (SKW3 cells; human …)
Experiment: FACS confirmation, supernatant on SKW3 cells; background gMFI 3300

gMFI on SKW3 WT, anti-mFc 647 [gMFI] | Binder
31500 | B1
28600 | B2
19400 | B3
15900 | B4
20300 | B5
8910 | B6
30400 | B7
5460 | B8
16600 | B9
22900 | B10

Target: T1, human CD4 on cells (SKW3 cells; human …)
Experiment: FACS primary screen, hybridoma supernatant, SKW3 vs SKW3 CD4 KO cells;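 also: flow cytometry on mixed SKW3 and dye-labeled SKW3 CD4 knockout cells after 30 min at 4 °C with supernatant, ratio of binding signal on parental versus knockout cells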

SKW3 WT vs KO ratio, anti-hKappa-FITC | SKW3 WT vs KO ratio, anti-mFc-647 | Binder
1.7 | 3.1 | B1
3.8 | 14.9 | B2
2.4 | 5.7 | B3
2.1 | 4.9 | B4
2.2 | 6.7 | B5
1.1 | 2.2 | B6
2.8 | 7.8 | B7
1.3 | 2.4 | B8
1.7 | 4.7 | B9
2.2 | 5.9 | B10

Target: T1, human CD4 on cells (SKW3 cells; human …)
Experiment: FACS binning on SKW3 cells; competitor OKT4a; background 5000, max binding 35000

OKT4a signal (anti-hu A647) with supernatant | Binder
44800 | B1
29700 | B2
38400 | B3
42900 | B4
38400 | B5
41800 | B6
36100 | B7
34800 | B8
39200 | B9
43300 | B10

Target: T1, human CD4 on cells (SKW3 cells; human …)
Experiment: FACS binning on SKW3 cells; competitor OKT4-A488; background 2163, max binding 8200

OKT4-A488 signal with supernatant | Binder
7410 | B1
9080 | B2
8890 | B3
3020 | B4
9100 | B5
8720 | B6
9010 | B7
8260 | B8
8660 | B9
3330 | B10

Target: T1, human CD4 on cells (SKW3 cells; human …)
Experiment: FACS binning on SKW3 cells; competitor RPA-T4-PE-Dazzle 594; background 783, max binding 15000

RPA-T4-PE-Dazzle 594 signal with supernatant | Binder
15500 | B1
16600 | B2
16200 | B3
14200 | B4
16400 | B5
10100 | B6
15500 | B7
15300 | B8
16000 | B9
14400 | B10

Target: T2, huCD4-HIS (human, UniProt P01730 26-390, limits assumed)
T2 construct: the ELISA is not described in the text of this stretch; also called human CD4-HIS
Experiment: ELISA binning; competitor ibalizumab; 100 ng/mL huCD4-HIS, anti-HIS HRP; background 45, max binding 3000000

Ibalizumab ELISA binning signal | Binder
1.41e+06 | B1
1.28e+06 | B2
1.69e+06 | B3
1.98e+06 | B4
2.2e+06 | B5
1.21e+06 | B6
1.66e+06 | B7
2.37e+06 | B8
1.98e+06 | B9
1.84e+06 | B10
